From US20100040541A1 (published 2010)
Numbering of substitutions follows the chain as printed. Numbers in names are those of the source. Values belong to the molecule of their own block, whether it stands above or below them.

Columns and labels:
[1] = target: T1, CD20 (human B lymphocyte-restricted differentiation antigen, Bp35) on human Burkitt lymphoma cells (Raji, Daudi, Ramos) (human) (UniProt P11836); assay: cell-based or functional assay
T1 sequence (looked up): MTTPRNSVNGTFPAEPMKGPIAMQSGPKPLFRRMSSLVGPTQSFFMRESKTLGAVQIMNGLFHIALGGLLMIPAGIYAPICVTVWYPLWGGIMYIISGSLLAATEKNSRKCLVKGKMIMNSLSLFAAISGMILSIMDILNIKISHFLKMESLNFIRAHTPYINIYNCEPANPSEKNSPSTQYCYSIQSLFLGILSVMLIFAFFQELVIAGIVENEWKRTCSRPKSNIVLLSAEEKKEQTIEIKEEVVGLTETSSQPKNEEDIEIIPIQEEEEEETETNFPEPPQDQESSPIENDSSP

[2] = target: anti-idiotype antibodies; assay: binding of radioiodinated MAb to anti-idiotype antibodies
[3] = target: T2, CD20 (human B lymphocyte-restricted differentiation antigen, Bp35) on human Burkitt lymphoma cells (Raji, … (human, UniProt P11836 1-297)); assay: flow cytometry dissociation from lymphoma cells, with or without a competitive binder
T2 construct: whole, on cells; also called cell-surface CD20
T2 sequence (looked up): T1 sequence (looked up)
Procedure: (§1) Cells (Daudi, Raji, or Ramos) in 0.5 mL of CM (phenol red-free RPMI 1640 media supplemented with 10% FBS) at 1×10⁶ cells/mL were incubated with 5 μg of each PE-labeled MAb at room temperature for 30 min, pelleted at 400×g, washed twice with CM, resuspended in 1.5 mL of CM, and split into two 0.75-mL aliquots. […] Subsequent measurements were taken at 30-min intervals. The percent maximal binding, which is the quotient of the MFI at T=X divided by that at T=0, was plotted against time, and the results analyzed by Prism software (GraphPad Software Inc., San Diego, Calif.) to yield the half-life or off-rates.

[4] = target: T2, CD20 (human B lymphocyte-restricted …); assay: saturation binding of 125I-labeled MAb to Raji cells, nonlinear regression / Scatchard, replicate assays
Procedure: Raji cells (5×10⁵) were incubated with radioiodinated MAbs in an assay volume of 225 μl, using tissue culture media as diluent, for 1 h at 37° C. or room temperature. Cells then were washed twice with PBS containing 1% horse serum, and cell pellets were counted in a gamma counter. The MAbs were titrated at a 2:3 serial dilution starting with approximately 2×10⁶ cpm/2 μg MAb/tube, run in triplicate. Non-specific binding was measured by including replicate unlabeled MAb.

[5] = target: T2, CD20 (human B lymphocyte-restricted …); assay: flow cytometry dissociation of PE-labeled MAb from Raji cells at 37 C without competing veltuzumab-Fab'-NEM
Procedure: The off-rate was determined by non-linear regression (one phase exponential decay) and P-values were generated by F-test using GraphPad Prism software.
as §1

[6] = target: T2, CD20 (human B lymphocyte-restricted …); assay: flow cytometry dissociation of PE-labeled MAb from Daudi, Ramos and Raji cells at 37 C with excess veltuzumab-Fab'-NEM
Procedure: as §1

[7] = target: T2, CD20 (human B lymphocyte-restricted …); assay: flow cytometry dissociation of PE-labeled MAb from Raji cells at 37 C with excess veltuzumab-Fab'-NEM
Procedure: as §1

[8] = target: T1, CD20 (human B lymphocyte-restricted differentiation antigen, Bp35) on human Burkitt lymphoma cells (Raji, Daudi, Ramos) (human); assay: flow cytometry dissociation of PE-labeled MAb from Raji cells at 37 C without competing veltuzumab-Fab'-NEM

B1: veltuzumab (hA20), humanized anti-CD20 IgG-kappa monoclonal antibody (antibody, V domains shown)
VH: QVQLQQSGAEVKKPGSSVKVSCKASGYTFTSYNMHWVKQAPGQGLEWIGAIYPGNGDTSYNQKFKGKATLTADESTNTAYMELSSLRSEDTAFYYCARSTYYGGDWYFDVWGQGTTVTVSS
VL: DIQLTQSPSSLSASVGDRVTMTCRASSSVSYIHWFQQKPGKAPKPWIYATSNLASGVPVRFSGSGSGTDYTFTISSLQPEDIATYYCQQWTSNPPTFGGGTKLEIK
notes: also called v-mab; Vmab
- immunoreactivity [2]: > 90%
- fold slower off-rate than rituximab or D101N [3]: ~2.5 fold
- Kd [4]: 6.23 to 12 nM
- half-life (dissociation) [5]: 4.68 h
- fold longer dissociation half-life than rituximab [6]: 2.7 fold

B2: D101N, mutant of veltuzumab with aspartic acid changed to asparagine at Kabat position 101 in CDRH3 (antibody, name in Kabat numbering, V domains shown)
VH: B1 VH with D109N
VL: B1 VL
notes: It has the same CDRs as rituximab and FRs identical to veltuzumab, with the same constant regions as veltuzumab (hA20-pdHL2 vector); also called D101N-hA20
- fold faster off-rate than rituximab [7]: 2 fold
- fold faster off-rate than veltuzumab [7]: 6 fold
- half-life (dissociation) [5]: 0.7 h

B3: 1F5, murine anti-CD20 monoclonal antibody (antibody, from another filing, V domains shown)
VH: QVQLRQPGAELVKPGASVKMSCKASGYTFTSYNMHWVKQTPGQGLEWIGAIYPGNGDTSYNQKFKGKATLTADKSSSTAYMQLSSLTSEDSAVYYCARSHYGSNYVDYFDYWGQGTTLTVSS
VL: QIVLSQSPAILSASPGEKVTMTCRASSSLSFMHWYQQKPGSSPKPWIYATSNLASGVPARFSGSGSGTSYSLTISRVEAEDAATYFCHQWSSNPLTFGAGTKLELKR
- half-life (dissociation) [8]: 3.25 h

B5: cA20, chimeric anti-CD20 antibody (antibody, V domains shown)
VH: QVQLQQPGAELVKPGASVKMSCKASGYTFTSYNMHWVKQTPGRGLEWIGAIYPGNGDTSYNQKFKGKATLTADKSSSTAYMQLSSLTSEDSAVYYCARSTYYGGDWYFDVWGQGTTVTVSS
VL: DIQLTQSPAILSASPGEKVTMTCRASSSVSYIHWFQQKPGSSPKPWIYATSNLASGVPVRFSGSGSGTSYSLTISRVEAEDAATYYCQQWTSNPPTFGGGTKLEIK
notes: Chimeric antibody: murine variable regions on human constant regions
- fold slower off-rate than rituximab or D101N [3]: ~2.5 fold

Results, then the molecule that gave them:

- ADCC (% lysis) of Daudi cells with PBMCs, negative control MAb [1]: 9.9 % lysis
Molecule: hMN-14 IgG (labetuzumab), humanized anti-CEACAM5 monoclonal antibody, negative control

- Kd [4]: 6.7 to 8.63 nM
- half-life (dissociation) [5]: 1.57 h
B4: rituximab, chimeric anti-CD20 monoclonal antibody (IDEC-c2B8) (antibody, V domains shown)
VH: B5 VH with D109N
VL: QIVLSQSPAILSASPGEKVTMTCRASSSVSYIHWFQQKPGSSPKPWIYATSNLASGVPVRFSGSGSGTSYSLTISRVEAEDAATYYCQQWTSNPPTFGGGTK
notes: Commercial chimeric antibody with human constant regions; also called Rmab; Rituxan
